Assay in all cases: FRET or BRET; CFP (donor) and YFP (acceptor) fusions co-expressed from pETDuet-1 in E. coli; late exponential cells washed once with 0.9% NaCl, 150 μl in a 96 well plate, Tecan Infinite M200 Pro; excitation 435 nm, emission 466-610 nm; RCY = ratio of the emission maxima of eCFP (480 nm) and eYFP (525 nm); RCY 1.1–1.3 read as enrichment/interaction, 0.9–1.1 as approximation without interaction, <0.9 as no FRET

Test [1] concerns the target DivIVA-YFP (C. glutamicum).
For test [2], the target named is DivIVAI18F-YFP (C. glutamicum).
Test [3] addresses DivIVAI18D-YFP (C. glutamicum).
Test [4] deals with DivIVAK20R-YFP (C. glutamicum).
For test [5], the target named is DivIVAΔM-YFP (C. glutamicum).

On to ParB-CFP (natural protein), for which the RCY (CFP/YFP emission ratio, FRET) in test [1] was determined as 1.16.

Take RodA-CFP (natural protein): the RCY (CFP/YFP emission ratio, FRET) in test [1] is 1.15; in test [2], 1.27; in test [3], 1.14; in test [4] it was 1.11; in test [5] it was 1.19.

For RodAE438G-CFP (natural protein), the RCY (CFP/YFP emission ratio, FRET) in test [1] stood at 1.1.

The record behind these values is PMC4285798.
